Results: patent US20190135918A1 (ICHNOS SCIENCES, published 2019)
Where a chain is given by its changes, count along the chain named. Names may count otherwise. Read-outs that look alike come from different tables or passages of the source. One block for each binder: values may come before it.

Assays:
[1] = molecular target: T1, human CD3 epsilon 1-26_Fc fusion protein (human); assay: SPR, human IgG1 format, graded relative to chimeric SP34; one grade for human and cynomolgus protein
T1 construct: also called human CD3 1-26_Fc fusion protein

[2] = molecular target: T2, cynomolgus monkey CD3 epsilon 1-26_Fc fusion protein (cynomolgus monkey); assay: as above
T2 construct: also called cynomolgus CD3 epsilon 1-26 Fc fusion protein

[3] = molecular target: T3, soluble extracellular region of human CD38 fused to a 6-His-tag (human, UniProt P28907 43-300); assay: SPR, antibody captured on protein G, CD38 injected
T3 construct: Expressed with the murine VJ2C leader; also called human CD38 protein; human CD38 antigen

[4] = molecular target: T3, soluble extracellular region of human …; assay: SPR
[5] = molecular target: T4, soluble extracellular region of cynomolgus monkey CD38 antigen fused to a 6-His-tag (cynomolgus monkey, UniProt Q5VAN0 45-301); assay: SPR
T4 construct: also called cynomolgus CD38

[6] = molecular target: T5, human CD3 epsilon on cells (human, UniProt P07766 23-207); assay: FACS staining of HPB-ALL cells, human IgG1 format, graded relative to chimeric OKT3
T5 construct: whole, on cells; On cells it stands in the CD3/TCR complex; also called HPB-ALL cells (human CD3 epsilon positive T cell tumour line); CD3 on human T cells
Method: (§1) HPB-ALL cells (DSMZ, Braunschweig, Germany, Cat. No: ACC483) were used as CD3 positive cell line for FACS staining. […] After washing, cells were incubated with a 1/200 dilution of anti-Human Fc-PE (EBioscience, Vienna, Austria) for 45 min on ice. Cells were then washed again and resuspended in 200 ul FACS buffer.

[7] = molecular target: T5, human CD3 epsilon on cells; assay: as above; remark: listed apart in the source
Method: as §1

human CD38 on cells = human CD38 on cells (human, UniProt P28907 1-300); assay: cell-based or functional assay

Kd [3]: 0.5 nM
fold improvement of affinity over the first prototype [4]: 2 fold
Kd [5]: 3.2 nM
B5: humanized 9G7 best-fit antibody (antibody, human IgG1, kappa, V domains shown)
VH: QVTLKESGPTLVKPTQTLTLTCTFSGLSLSTSGKGVGWIRQPPGKALEWLAHIWWDDDKRYNPALKSRLTITKDTSKNQVVLTMTNMDPVDTATYYCARIELGRSYVMDYWGQGTLVTVSS
VL: DIQMTQSPSSLSASVGDRVTITCQASQDVITSVAWYQQKPGKAPKLLIYSASYRYTGVPSRFSGSGSGTDFTFTISSLQPEDIATYYCQQHYTIPLTFGQGTKLEIKR
notes: Human IgG1; light chain carries the F36Y back mutation (Kabat); also called 9G7 best-fit F36Y humanized variant

Kd [4]: 1 nM
fold lower binding than the mouse parental antibody [4]: 3 fold
B6: first humanized 9G7 antibody prototype (best-fit approach, post CDR grafting) (antibody, human IgG1, kappa, V domains shown)
VH: B5 VH
VL: B5 VL with Y36F
notes: Human IgG1 isotype; also called first antibody prototype; first humanized prototype

Kd [3]: 0.4 nM
Kd [5]: 1 nM
B7: humanized 9G7 best-framework antibody (antibody, human IgG1, kappa, V domains shown)
VH: EVQLVESGGGLVQPGGSLRLSCAFSGLSLSTSGKGVGWIRQAPGKGLEWLAHIWWDDDKRYNPALKSRLTISKDTSKNTVYLQMNSLRAEDTAVYYCARIELGRSYVMDYWGQGTLVTVSS
VL: B5 VL with Q24R, Y36F, F73L, I83F, L104V
notes: Human IgG1

Kd [3]: 3.6 nM
B8: humanized HB-7 best-fit antibody (antibody, human IgG1, kappa, V domains shown)
VH: QVQLQESGPGLVKPSETLSLTCTVSGFSLISYGVHWVRQPPGKGLEWLGVIWRGGSTDYNAAFMSRLTISKDNSKNQVSLKLSSVTAADTAVYFCAKTLITTGYAMDYWGQGTLVTVSS
VL: DIQLTQSPSSLSASVGDRVTITCRASEDIYNRLAWYQQKPGKAPKLLISGATSLETGVPSRFSGSGSGKDYTLTISSLQPEDFATYYCQQYWSTPTFGQGTKLEIKR
notes: Human IgG1 format

binding result [6]: binds
B15: VH6/VL4 (antibody, human IgG1, kappa, V domains shown)
VH: EVQLVESGGGLVQPGGSLRLSCAASGYTFTRYTMHWVRQAPGKGLEWIGYINPSRGYTRYADSVKGRFTLSTDKSKNTAYLQMNSLRAEDTAVYYCARYYDDHYCLDYWGQGTLVTVSS
VL: DIQLTQSPSSLSASVGDRVTITCRASSSVSYVAWYQQKPGKAPKRWIYDTSKLYSGVPSRFSGSRSGTDYTLTISSLQPEDFATYYCQQWSSNPPTFGQGTKVEIKR
notes: human IgG1; also called humanized OKT3 VH6/VL4 antibody; copies: 2 + 2

binding result [6]: binds
B16: VH5/VL4 (antibody, human IgG1, kappa, V domains shown)
VH: B15 VH with I48V
VL: B15 VL
notes: human IgG1; also called humanized OKT3 VH5/VL4 antibody; copies: 2 + 2

binding result [7]: binds
B17: humanized OKT3 VH11/VL4 antibody (antibody, human IgG1, V domains shown)
VH: B15 VH with R59Y, N84S
VL: B15 VL
notes: Human IgG1; copies: 2 + 2

binding result [7]: binds
B18: VH10/VL8 (antibody, human IgG1, kappa, V domains shown)
VH: B15 VH with R59Y, G66S, F68A
VL: B15 VL with R65G
notes: human IgG1; also called humanized OKT3 VH10/VL8 antibody; copies: 2 + 2

binding result [6]: binds
B19: VH5/VL6 (antibody, human IgG1, kappa, V domains shown)
VH: B15 VH with I48V
VL: B15 VL with P95F
notes: human IgG1; also called humanized OKT3 VH5/VL6 antibody; copies: 2 + 2

binding result [6]: binds
B20: VH6/VL6 (antibody, human IgG1, kappa, V domains shown)
VH: B15 VH
VL: B15 VL with P95F
notes: human IgG1; also called humanized OKT3 VH6/VL6 antibody; copies: 2 + 2

binding result [6]: binds
B21: VH6/VL5 (antibody, human IgG1, kappa, V domains shown)
VH: B15 VH
VL: B15 VL with V32M, A33N, R45L, W46L
notes: human IgG1; also called humanized OKT3 VH6/VL5 antibody; copies: 2 + 2

Kd [3]: 2.5 nM
B23: chimeric HB-7 antibody (antibody, human IgG1, kappa, V domains shown)
VH: KVQLQESGPSLVQPSQRLSITCTVSGFSLISYGVHWVRQSPGKGLEWLGVIWRGGSTDYNAAFMSRLSITKDNSKSQVFFKMNSLQADDTAIYFCAKTLITTGYAMDYWGQGTTVTVSS
VL: DIELTQSPSSFSVSLGDRVTITCKASEDIYNRLAWYQQKPGNAPRLLISGATSLETGVPSRFSGSGSGKDYTLSITSLQTEDVATYYCQQYWSTPTFGGGTKLEIKR

binding result [1]: no binding (tested: not printed)
binding result [2]: no binding (tested: not printed)
B24: VH1/VL3 (antibody)
heavy: not shown
light: EAVVTQSATLSVSPGERATLSCRSSTGAVTTSNYANWVQEKPGQAFRGLIGGANKRAPGVPARFSGSLSGDEATLTISSLQSEDFAVYFCQLWYSNLWVFGQGTKLEIKRTVAAPSVFIFPPSDEQLKSGTASVVCLLNNFYPREAKVQWKVDNALQSGNSQESVTEQDSKDSTYSLSSTLTLSKADYEKHKVYACEVTHQGLSSPVTKSFNRGEC
notes: IgG1; SP34 series; also called humanized SP34 VH1/VL3 antibody; copies: 2 + 2

Further lines, the binder ahead of its results:

B1: VH1/VL19 (antibody, human IgG1, kappa, V domains shown)
VH: EVQLVESGGGLVQPGGSLRLSCAASGFTFNTYAMNWVRQAPGKGLEWVARIRSKYNNYATYYADSVKGRFTISRDDSKNTLYLQMNSLRAEDTAVYYCVRHGNFGNSYVSWFAYWGQGTTVTVSS
VL: EIVVTQSPATLSVSPGERATLSCRSSTGAVTTSNYANWVQEKPGQAFRGLIGGANKRAPGVPARFSGSLSGTEATLTISSLQSEDFAVYYCALWYSNLWVFGQGTKLEIKR
notes: IgG1; also called humanized SP34 VH1/VL19 antibody; copies: 2 + 2
binding result [1]: binds
binding result [2]: binds

B2: VH1/VL21 (antibody, human IgG1, kappa)
heavy: not shown
light: EIVVTQSPATLSVSPGERATLSCRSSTGAVTTSNYANWVQEKPGQAFRGLIGGANKRAPGVPARFSGSLSGDEATLTISSLQSEDFAVYYCALWYSNLWVFGQGTKLEIKRTVAAPSVFIFPPSDEQLKSGTASVVCLLNNFYPREAKVQWKVDNALQSGNSQESVTEQDSKDSTYSLSSTLTLSKADYEKHKVYACEVTHQGLSSPVTKSFNRGEC
notes: IgG1 format of the variable domains of m38; also called humanized SP34 VH1/VL21 antibody (IgG1 format); H1L21 IgG1; copies: 2 + 2
binding result [1]: binds
binding result [2]: binds

B3: humanized SP34 prototype antibody VH1/VL1 (antibody, human IgG1, kappa)
VH: not shown
VL: B2 light with I2A, Y90F, A92Q
notes: Human IgG1; Printed as 'variable heavy chain and light chain'
binding result [1]: binds
binding result [2]: binds

B4: VH1/VL22 (antibody, human IgG1, kappa, V domains shown)
VH: B1 VH
VL: B1 VL with E41Q, T72D
notes: IgG1; also called humanized SP34 VH1/VL22 antibody; copies: 2 + 2
binding result [1]: binds
binding result [2]: binds

B9: VH5/VL3 (antibody, human IgG1, kappa, V domains shown)
VH: B15 VH with I48V
VL: B15 VL with R45L, W46L
notes: human IgG1; also called humanized OKT3 VH5/VL3 antibody; copies: 2 + 2
binding result [6]: binds

B10: VH6/VL8 (antibody, human IgG1, kappa, V domains shown)
VH: B15 VH
VL: B15 VL with R65G
notes: human IgG1; also called humanized OKT3 VH6/VL8 antibody; copies: 2 + 2
binding result [7]: binds

B11: humanized OKT3 VH8/VL4 antibody (antibody, human IgG1, V domains shown)
VH: B15 VH with R59Y
VL: B15 VL
notes: Human IgG1; copies: 2 + 2
binding result [7]: binds

B12: VH10/VL4 (antibody, human IgG1, kappa, V domains shown)
VH: B15 VH with R59Y, G66S, F68A
VL: B15 VL
notes: human IgG1; also called humanized OKT3 VH10/VL4 antibody; copies: 2 + 2
binding result [7]: binds

B13: VH9/VL8 (antibody, human IgG1, kappa, V domains shown)
VH: B15 VH with R59Y, G66S
VL: B15 VL with R65G
notes: human IgG1; also called humanized OKT3 VH9/VL8 antibody; copies: 2 + 2
binding result [7]: binds

B14: VH7/VL4 (antibody, human IgG1, kappa, V domains shown)
VH: B15 VH with I48V, R59N
VL: B15 VL
notes: human IgG1; also called humanized OKT3 VH7/VL4 antibody; copies: 2 + 2
binding result [7]: binds

B22: BEAT CD38-HB7bestfit/CD3(SP34) antibody (bispecific antibody)
heavy: QVQLQESGPGLVKPSETLSLTCTVSGFSLISYGVHWVRQPPGKGLEWLGVIWRGGSTDYNAAFMSRLTISKDNSKNQVSLKLSSVTAADTAVYFCAKTLITTGYAMDYWGQGTLVTVSSASTKGPSVFPLAPSSKSTSGGTAALGCLVKDYFPEPVTVSWNSGALTSGVHTFPAVLQSSGLYSLSSVVTVPSSSLGTQTYICNVNHKPSNTKVDKKVEPKSCDKTHTCPPCPAPEAAGGPSVFLFPPKPKDTLMISRTPEVTCVVVDVSHEDPEVQFKWYVDGVEVHNAKTKPREEQYNSTFRVVSVLTVLHQDWLNGKEYKCKVSNKALPAPIEKTISKTKGQPREPAVYTLPPSREEMTKNQVKLVCLVTGFYPSDIAVEWESSGQPENNYYTTPPMLDSDGSFSLVSWLNVDKSRWQQGNIFSCSVMHEALHNRFTQKSLSLSPGK
light: DIQLTQSPSSLSASVGDRVTITCRASEDIYNRLAWYQQKPGKAPKLLISGATSLETGVPSRFSGSGSGKDYTLTISSLQPEDFATYYCQQYWSTPTFGQGTKLEIKRTVAAPSVFIFPPSDEQLKSGTASVVCLLNNFYPREAKVQWKVDNALQSGNSQESVTEQDSKDSTYSLSSTLTLSKADYEKHKVYACEVTHQGLSSPVTKSFNRGEC
chain: not shown
T cell redirected killing of Daudi cells, RDL-FACS method, EC50 (human CD38 on cells): 0.0018 nM
